Assay results: PMC8789040, “Directed evolution of orthogonal RNA–RBP pairs through library-vs-library in vitro selection”
Positions count from the first letter of the chain named.

Assays:
Details in all cases: protein: recombinant, tags: N-term Twin-Strep-tag, C-term 6xHis
[1] = biological target: L7Ae (Archaeoglobus fulgidus (printed A. …, UniProt O29494 1-119)); assay: SPR; SPR: 10 mM HEPES pH 7.4, 150 mM NaCl, 1 mM MgCl2, 0.05% P20, 0.25 mM TCEP, 0.1 mg/ml BSA, 25 ug/ml yeast tRNA, 25 C; EMSA: 10 mM HEPES-KOH pH 7.5, 140 mM KCl, 10 mM NaCl, 1 mM MgCl2, 0.1 mM TCEP, 0.01% Tween-20, 10 ug/ml yeast tRNA (1x of the printed 5x buffer)
Chain of L7Ae (Archaeoglobus fulgidus (O29494 whole entry): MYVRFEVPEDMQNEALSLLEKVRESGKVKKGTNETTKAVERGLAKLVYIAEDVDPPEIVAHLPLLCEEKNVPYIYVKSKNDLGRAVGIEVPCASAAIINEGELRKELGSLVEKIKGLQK

[2] = biological target: L7Ae (Archaeoglobus fulgidus, UniProt O29494 2-119); assay: SPR (Biacore T200, RNA captured, protein analyte); SPR running buffer: 10 mM HEPES pH 7.4, 150 mM NaCl, 0.05% Surfactant P20, 1 mM MgCl2, 0.25 mM TCEP, 0.1 mg/ml BSA, 25 ug/ml yeast tRNA, 25 C; RNA captured by its 3' docking sequence on biotinylated 2'-OMe RNA
Chain of L7Ae (O29494 2-119): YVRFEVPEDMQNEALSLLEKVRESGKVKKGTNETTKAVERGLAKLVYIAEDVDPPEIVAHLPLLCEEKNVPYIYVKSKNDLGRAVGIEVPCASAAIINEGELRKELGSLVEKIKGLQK

[3] = biological target: dL7Ae (Archaeoglobus fulgidus, UniProt O29494 2-119, E34K;K37E;R41E;I88G;E89G;V90G;P91G;C92S); assay: as above
Chain of dL7Ae (O29494 2-119 E34K/K37E/R41E/I88G/E89G/V90G/P91G/C92S): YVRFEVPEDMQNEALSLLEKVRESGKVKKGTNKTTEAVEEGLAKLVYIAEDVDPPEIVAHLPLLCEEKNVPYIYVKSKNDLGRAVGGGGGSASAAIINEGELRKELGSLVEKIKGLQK

[4] = biological target: dL7Ae (Archaeoglobus fulgidus (printed A. …, UniProt O29494 1-119, E34K;K37E;R41E;I88G;E89G;V90G;P91G;C92S)); assay: SPR; SPR: 10 mM HEPES pH 7.4, 150 mM NaCl, 1 mM MgCl2, 0.05% P20, 0.25 mM TCEP, 0.1 mg/ml BSA, 25 ug/ml yeast tRNA, 25 C; EMSA: 10 mM HEPES-KOH pH 7.5, 140 mM KCl, 10 mM NaCl, 1 mM MgCl2, 0.1 mM TCEP, 0.01% Tween-20, 10 ug/ml yeast tRNA (1x of the printed 5x buffer)
Chain of dL7Ae (Archaeoglobus fulgidus (O29494 whole entry E34K/K37E/R41E/I88G/E89G/V90G/P91G/C92S): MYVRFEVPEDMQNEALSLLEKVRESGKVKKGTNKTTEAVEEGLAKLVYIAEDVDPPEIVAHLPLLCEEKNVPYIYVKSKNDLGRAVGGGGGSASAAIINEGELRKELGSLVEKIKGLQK

B1: CS2 (structured_RNA)
RNA: GGAUGCAGAGAACGAAAGUUCCAUGACGCAUCCAAAUCGACGAAAGACACAGAACG
With B1 the Kd ([1]; hairpin, asymmetric internal loop (putative kink-turn)) was 5.71 pM.

B2: CS2-M4 (structured_RNA)
RNA: B1 RNA with A26C
B2: binds [2].

B3: CS2-M1 (structured_RNA)
RNA: B1 RNA with G8A
B3: binds [2].

B4: CS2-M2 (structured_RNA)
RNA: B1 RNA with A9C
B4: no binding [2].

B5: CS2-M3 (structured_RNA)
RNA: B1 RNA with G25U
B5 gave a Kd ([1]; hairpin) of 200000 pM.

B6: dKt (dKt_SPR) (structured_RNA)
RNA: GGCUGGGGCGUCAUCCGAAAGGUGCCCCAGCCAAAUCGACGAAAGACACAGAACG
B6: no binding ([2]; hairpin, defective kink-turn); no binding ([3]; hairpin, defective kink-turn); no binding ([4]; hairpin, defective kink-turn). B6: no binding ([1]; hairpin, defective kink-turn).

B7: Box C/D Kt (Kt_SPR) (structured_RNA)
RNA: GGAUCGCGUGAUCCGAAAGGUGACGAUCCAAAUCGACGAAAGACACAGAACG
With B7 the Kd ([2]; hairpin with kink-turn) was 21.3 pM, the binding result ([3]; hairpin with kink-turn) was “no binding” and the binding result ([4]; hairpin with kink-turn) was “no binding”. For the same binder, the Kd ([1]; hairpin with kink-turn) was 21.3 pM.

B8: CS1-M1 (structured_RNA)
RNA: GGUGGCUGAGAAAGGCGAAAGCCUUGUGAUGCCAUCAAAUCGACGAAAGACACAGAACG
For B8, the Kd ([1]; hairpin) was 1810 pM.

B9: CS1-M3 (structured_RNA)
RNA: B8 RNA with U7A, A9U, G28U, U30G
B9: no binding [2].

B10: CS1-M2a (structured_RNA)
RNA: B8 RNA with U7A, G8U, U30G
B10: binds [2].

B11: CS1-M2b (structured_RNA)
RNA: B8 RNA with U7A, G8A, U30G
B11: binds [2].

B12: CS1-M2c (structured_RNA)
RNA: B8 RNA with U7A, A29U, U30G
B12: binds [2].

B13: CS1-M2 (structured_RNA)
RNA: B8 RNA with U7A, G8U, A29U, U30G
B13: no binding [2].

B14: CS1 (structured_RNA)
RNA: B8 RNA with U7A, U30G
B14 showed a Kd ([1]; hairpin, internal loop) of 1490 pM.
